Test [1] has as its target T1, recombinant, soluble human ASGR-1 (human, UniProt P07306 62-291).
T1 construct: biotinylated in the binning assay; also called soluble huASGR-1; Soluble ASGR-1 (Amgen)
T1 sequence: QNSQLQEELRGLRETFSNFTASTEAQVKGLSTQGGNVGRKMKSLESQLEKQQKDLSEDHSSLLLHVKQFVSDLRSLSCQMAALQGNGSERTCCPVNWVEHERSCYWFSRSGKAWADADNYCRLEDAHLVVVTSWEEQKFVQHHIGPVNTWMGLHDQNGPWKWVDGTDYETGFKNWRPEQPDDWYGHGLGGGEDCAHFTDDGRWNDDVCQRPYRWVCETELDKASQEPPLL
Description: Octet BLI dissociation, pH 5.6 plus calcium. On the procedure: (§1) The relative dissociation of ASGR-1 from antibodies was measured using a label-free assay on an OctetHTX instrument (Fortebio). Antibody samples were captured on anti-HuFc kinetic biosensors (ForteBio cat #18-5064) at 5 ug/mL in assay buffer (10 mM Tris, 0.1% Triton, 150 mM NaCl, 1 mg/mL BSA, 1 mM CaCl2, pH7.4) for three minutes. A one minute baseline stabilization step was performed in assay buffer. Soluble ASGR-1 (Amgen) at 6 ug/ml in assay buffer was added and association to the antibodies was monitored for two minutes. Subsequent dissociation of ASGR-1 from the antibodies was performed by incubating the ASGR-1-mAb complexes for 10 minutes under each of the following conditions:
(§2) The binding signal at the end of the 2 minute association phase for each dissociation experiment was set to 100% and used to represent the maximal level of ASGR-1 binding. After 1 minute of dissociation, the percentage of ASGR-1 remaining bound was calculated. The lower the percent remaining at a given time point indicates increased levels of dissociation in response to the test conditions (ie. different pH and/or calcium concentrations). The change in the percentage of ASGR-1 remaining bound in response to each test condition relative to the percent remaining in the control conditions (ie. pH 7.4+calcium) was determined. Cut-offs for an antibody to be categorized as being sensitive to a particular condition were set to >10% (ie. if >10% of the ASGR-1 dissociates from the antibody under a particular test condition compared to control condition, it was deemed sensitive to that condition). The analysis was done using the 1 minute dissociation time point (except for mAb 149A1 which was binned based on the 4 minute dissociation time point). Using this analysis, the ASGR-1-binding, receptor-ligand blocking antibodies were separated into groups according to their dissociation profiles in response to pH and calcium (Table 7.3). Antibodies belonging to each category were observed.
Background: BLI is a label-free optical method that tracks binding on a fibre tip over time.

Test [2] deals with T1, recombinant, soluble human ASGR-1. The test is described as follows: Octet BLI dissociation, pH 7.4 minus calcium. On the procedure: as §1, §2
The target is the same in test [3]. Description: Octet BLI dissociation, pH 5.6 minus calcium. As for the experimental part: as §1, §2

B1: 22G5 (antibody, V domains shown)
VH: EVQLLESGGGLVQPGGSLRLSCAASGFTFSSYAMNWVRQAPGMGLEWVSVISRSGGYTYYADSVKGRFTISRDNSKNTLYLQMNSLRAEDTAVYYCASRLAVAGSEAFDIWGQGTLVTVSS
VL: DIQMTQSPSSLSASVGDRVTITCRASQNISSYLNWYQQKQGKAPKLLIYAASSLQNGVPSRFSGRGSGTDFTLTISSLQPEDFATYYCQQSYRTPLFTFGPGTKVDFK
notes: hybridoma mAb
B1: the figures for the “% Change Compared to pH 7.4 + Calcium” value in test [1] and in test [2] were 35% and 40%, respectively.

B2: 64E2 (antibody, V domains shown)
VH: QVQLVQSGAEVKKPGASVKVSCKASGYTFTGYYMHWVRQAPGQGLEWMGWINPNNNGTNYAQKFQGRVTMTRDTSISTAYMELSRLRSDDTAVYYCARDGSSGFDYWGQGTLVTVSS
VL: DIQMTQSPSSVSASVGDRVTITCRASQGISRWLAWYQQKPGKAPKLLIYAASSLQSGVPSRFSGSGSGTDFTLTISSLQPEDFATYYCQQANSFPFTFGPGTKVDIK
notes: hybridoma mAb
Take B2: the results for the “% Change Compared to pH 7.4 + Calcium” value in test [3], in test [1] and in test [2] were 49%, 29% and 48%, respectively.

B3: 4H6 (antibody, V domains shown)
VH: QVQLVQSGAEVKKPGASVKVSCKASGYTFTDYYLHWVRQAPGQGLEWMGWIHPNSGGTNYAQKFQGRVTMTRDTSISTAYMGLSSLRSDDTAVYYCARDGTSSFDYWGQGTLVTVSS
VL: DIQMTQSPSSVSASVGDRVTITCRASQGISRWLAWYQQKPGKAPKLLIYGASSLQSGVPSRFSGSGSGTDFTLTISSLQPEDFAIYYCQQANSFPFTFGPGTKVDIK
notes: hybridoma mAb
B3: the entries for the “% Change Compared to pH 7.4 + Calcium” value in test [3], in test [1] and in test [2] were 2%, -1% and 5%, respectively.

B4: 10G6 (antibody, V domains shown)
VH: QVQLVQSGAEVKKPGASVKVSCKASGYTFTAYHMHWVRQAPGQGLEWMGWINPNNNGTNYAQKFQGRVTMTRDTSISTAYMELSRLRSDDTAVYYCGRDVTSSFDYWGQGTLVTVSS
VL: DIQMTQSPSSVSASVGDRVTITCRASQGISKWLAWYQQKPGKAPKILIYAAYSLQSGVPARFSGSGSGTDFTLTIRSLQPEDFATYYCQQANSFPFTFGPGTKVDIK
notes: hybridoma mAb
For the molecule B4, the “% Change Compared to pH 7.4 + Calcium” value came to 15% in test [3], 4% in test [1] and 7% in test [2].

B5: 50D4 (antibody, V domains shown)
VH: QVQLVQSGAEVKKPGASVKVSCKASGYTFTGYHMHWVRQAPGQGLEWMGWINPNNNATNYAQSFQGRVTLTRDTSISTAYMELSRLRSDDTAVYYCARDGTSSFDFWGQGTLVTVSS
VL: DIQMTQSPSSVSASVGDRLTITCRASQGISRWLAWYQQKPGKAPKVLIYAASTLQSGVPSRFSGSGSGTDFTLTISSLQPEDFATYYCQQANSFPFTFGPGTKVDIR
notes: hybridoma mAb
As for B5, the “% Change Compared to pH 7.4 + Calcium” value in test [3] worked out at 9%; in test [1], 0%; in test [2], 6%.

B6: 49F10 (antibody, V domains shown)
VH: QVQLVQSGAEVKKPGASVKVSCKASGYTFTGYHMHWVRQAPGQGLEWMGWINPNNNATNYAQNFQGRVTLTRDTSISTAYMELSRLRSDDTAVYYCARDGTSSFDFWGQGTLVTVSS
VL: DIQMTQSPSSVSASVGDRVTITCRASQGISRWLAWYQQKPGKAPKVLIYAASTLQSGVPSRFSGSGSGTDFTLTISSLQPEDFATYYCQQANSFPFTFGPGTKVDIK
notes: hybridoma mAb
Consider B6, for which the results for the “% Change Compared to pH 7.4 + Calcium” value in test [3], in test [1] and in test [2] were 8%, -2% and 4%, respectively.

B7: 51E9 (antibody, V domains shown)
VH: QVQLVQSGAEVKKPGASVKVSCKASRYTFTGYHIHWVRQAPGQGLEWMGWINPNTNGTQYAQKFQGRVTMTRDTSISTAYMELSRLRSDDTAVYYCARDGTSSFDYWGQGTLVTVSS
VL: DIQMTQSPSSVSASVGDRVTITCRASQGISSWLAWYQQKPGKAPKLLIYVASSLQSGVPSRFSGSGSGTDFTLTIRSLQPEDFATYYCQQAKSFPFTFGPGTKVDIK
notes: hybridoma mAb
Regarding B7, the “% Change Compared to pH 7.4 + Calcium” value is 2% in test [3], -5% in test [1] and 3% in test [2].
